Assay results reported in patent publication US20150079657.

Key:
Assay in all cases: cell_activity
[1] = tested on: ZF(Sox2+r475)-p300 (Artificial Sequence); details: SOX2 mRNA in HEK293; nearly 2-fold or greater in K562
[2] = tested on: ZF(Oct4+286)-p300 (Artificial Sequence); details: OCT4 mRNA in HEK293; at least 20-fold in K562; H3K27ac increased
[3] = tested on: ZF(Sox2+185)-p300 (Artificial Sequence); details: SOX2 mRNA in HEK293; nearly 2-fold or greater in K562
[4] = tested on: ZF(Oct4+420)-p300 (Artificial Sequence); details: OCT4 mRNA in HEK293; at least 20-fold in K562; H3K27ac increased
Chain of ZF(Oct4+420)-p300 (Artificial Sequence) (chain, as listed by the source): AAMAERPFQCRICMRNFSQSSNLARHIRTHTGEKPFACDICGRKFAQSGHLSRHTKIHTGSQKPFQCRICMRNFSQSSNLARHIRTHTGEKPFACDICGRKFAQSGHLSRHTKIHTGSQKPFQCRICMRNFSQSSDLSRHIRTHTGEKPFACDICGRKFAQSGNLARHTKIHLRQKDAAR

Chain of ZF(Sox2+185)-p300 (Artificial Sequence) (chain, as listed by the source): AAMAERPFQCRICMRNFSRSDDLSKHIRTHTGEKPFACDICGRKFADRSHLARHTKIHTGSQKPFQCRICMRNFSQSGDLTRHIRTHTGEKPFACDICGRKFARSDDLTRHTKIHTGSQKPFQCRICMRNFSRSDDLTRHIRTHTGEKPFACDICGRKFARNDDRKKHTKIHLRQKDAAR
Chain of ZF(Sox2+r475)-p300 (Artificial Sequence) (chain, as listed by the source): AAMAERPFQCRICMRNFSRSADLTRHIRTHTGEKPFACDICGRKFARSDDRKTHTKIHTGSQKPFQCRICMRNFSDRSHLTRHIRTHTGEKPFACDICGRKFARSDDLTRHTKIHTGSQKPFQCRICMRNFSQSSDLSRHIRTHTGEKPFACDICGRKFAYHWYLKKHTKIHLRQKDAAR
Chain of ZF(Oct4+286)-p300 (Artificial Sequence) (chain, as listed by the source): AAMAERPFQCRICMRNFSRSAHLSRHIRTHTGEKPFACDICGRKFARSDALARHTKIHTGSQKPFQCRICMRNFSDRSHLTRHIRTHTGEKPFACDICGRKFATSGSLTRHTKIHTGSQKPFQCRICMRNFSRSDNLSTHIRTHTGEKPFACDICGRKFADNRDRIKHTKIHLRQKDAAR

For SOX2 +r475 target site (reverse strand), the activity [1] was > 1.5 fold.

OCT4 +286 target site was tested, and the activity [2] was > 90 fold.

With SOX2 +185 target site the activity [3] was > 1.5 fold.

For OCT4 +420 target site, the activity [4] was > 90 fold.
